These results are taken from US20030120051A1 (SUGEN, published 2003).

The assay has as its target T1, rat CASPR/p190 (rat, UniProt P97846 21-1381).
T1 construct: Endogenous in GH3 cells and rat brain, or expressed from pCM190R in COS7 cells; read from membrane lysates; no cleavage site stated; also called Contactin ASsociated PRotein; 190 kDa protein
T1 sequence: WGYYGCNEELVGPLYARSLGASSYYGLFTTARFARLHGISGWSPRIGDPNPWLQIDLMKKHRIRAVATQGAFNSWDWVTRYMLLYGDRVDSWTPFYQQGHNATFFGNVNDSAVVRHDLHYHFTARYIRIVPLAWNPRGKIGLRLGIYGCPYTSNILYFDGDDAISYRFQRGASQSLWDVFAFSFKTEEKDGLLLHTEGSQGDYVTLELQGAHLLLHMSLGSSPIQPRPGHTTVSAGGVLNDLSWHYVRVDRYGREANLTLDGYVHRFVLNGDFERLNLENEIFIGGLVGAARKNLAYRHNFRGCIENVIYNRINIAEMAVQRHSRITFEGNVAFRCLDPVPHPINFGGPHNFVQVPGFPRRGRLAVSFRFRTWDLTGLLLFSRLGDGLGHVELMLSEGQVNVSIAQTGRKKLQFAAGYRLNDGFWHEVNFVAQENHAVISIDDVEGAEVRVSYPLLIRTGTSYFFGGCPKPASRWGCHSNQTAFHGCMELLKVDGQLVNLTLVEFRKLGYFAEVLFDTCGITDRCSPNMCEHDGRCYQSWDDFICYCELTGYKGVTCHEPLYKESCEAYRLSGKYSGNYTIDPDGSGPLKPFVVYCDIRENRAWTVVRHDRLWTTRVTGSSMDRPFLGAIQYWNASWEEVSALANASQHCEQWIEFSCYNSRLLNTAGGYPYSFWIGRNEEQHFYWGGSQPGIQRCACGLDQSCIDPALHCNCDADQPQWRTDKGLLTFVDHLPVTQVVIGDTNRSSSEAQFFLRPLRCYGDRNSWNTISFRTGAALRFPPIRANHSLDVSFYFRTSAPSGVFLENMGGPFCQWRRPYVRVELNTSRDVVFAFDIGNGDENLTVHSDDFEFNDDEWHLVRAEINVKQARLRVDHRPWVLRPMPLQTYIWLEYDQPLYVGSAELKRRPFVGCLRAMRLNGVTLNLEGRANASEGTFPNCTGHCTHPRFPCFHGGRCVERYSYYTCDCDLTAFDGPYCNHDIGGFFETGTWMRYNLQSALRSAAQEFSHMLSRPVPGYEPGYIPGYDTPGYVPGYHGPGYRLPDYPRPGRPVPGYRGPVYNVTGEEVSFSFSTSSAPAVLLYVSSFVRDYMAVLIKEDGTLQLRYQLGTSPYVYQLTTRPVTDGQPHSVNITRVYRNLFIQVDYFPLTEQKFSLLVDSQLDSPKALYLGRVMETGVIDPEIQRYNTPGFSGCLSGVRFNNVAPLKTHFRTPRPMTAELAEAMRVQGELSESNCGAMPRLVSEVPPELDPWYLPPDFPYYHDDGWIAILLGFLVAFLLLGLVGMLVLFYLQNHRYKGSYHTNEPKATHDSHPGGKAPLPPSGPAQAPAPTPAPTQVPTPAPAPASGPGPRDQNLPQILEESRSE
Put plainly: bioaffinity precipitation from membrane extracts of labeled GH3 cells.

B1: βF-Fc (FNIII domain of RPTPβ fused to human IgG1-Fc) (Fc fusion)
chain: not shown
notes: domain: FNIII; also called the FNIII domain alone; fibronectin domain alone; not shown: human IgG1 Fc (vector pCNγ1)
With B1, the binding result was “no binding”.
